Measured values reported in PMC5800781 (Nature, 2017).

B1: RAD51 (natural protein, human, UniProt Q06609 1-339, looked up)
chain: MAMQMQLEANADTSVEEESFGPQPISRLEQCGINANDVKKLEEAGFHTVEAVAYAPKKELINIKGISEAKADKILAEAAKLVPMGFTTATEFHQRRSEIIQITTGSKELDKLLQGGIETGSITEMFGEFRTGKTQICHTLAVTCQLPIDRGGGEGKAMYIDTEGTFRPERLLAVAERYGLSGSDVLDNVAYARAFNTDHQTQLLYQASAMMVESRYALLIVDSATALYRTDYSGRGELSARQMHLARFLRMLLRLADEFGVAVVITNQVVAQVDGAAMFAADPKKPIGGNIIAHASTTRLYLRKGRGETRICKIYDSPCLPEAEAMFAINADGVGDAKD

How the values were obtained:
RAD51 = biological target: B1; experiment: pull-down
BRCA1 = BRCA1 (UniProt P38398 1-1863); experiment: far-Western, overlay or dot blot
BARD1 = biological target: T1, BARD1 (human, UniProt Q99728 1-777); experiment: far-Western, overlay or dot blot
T1 sequence (looked up): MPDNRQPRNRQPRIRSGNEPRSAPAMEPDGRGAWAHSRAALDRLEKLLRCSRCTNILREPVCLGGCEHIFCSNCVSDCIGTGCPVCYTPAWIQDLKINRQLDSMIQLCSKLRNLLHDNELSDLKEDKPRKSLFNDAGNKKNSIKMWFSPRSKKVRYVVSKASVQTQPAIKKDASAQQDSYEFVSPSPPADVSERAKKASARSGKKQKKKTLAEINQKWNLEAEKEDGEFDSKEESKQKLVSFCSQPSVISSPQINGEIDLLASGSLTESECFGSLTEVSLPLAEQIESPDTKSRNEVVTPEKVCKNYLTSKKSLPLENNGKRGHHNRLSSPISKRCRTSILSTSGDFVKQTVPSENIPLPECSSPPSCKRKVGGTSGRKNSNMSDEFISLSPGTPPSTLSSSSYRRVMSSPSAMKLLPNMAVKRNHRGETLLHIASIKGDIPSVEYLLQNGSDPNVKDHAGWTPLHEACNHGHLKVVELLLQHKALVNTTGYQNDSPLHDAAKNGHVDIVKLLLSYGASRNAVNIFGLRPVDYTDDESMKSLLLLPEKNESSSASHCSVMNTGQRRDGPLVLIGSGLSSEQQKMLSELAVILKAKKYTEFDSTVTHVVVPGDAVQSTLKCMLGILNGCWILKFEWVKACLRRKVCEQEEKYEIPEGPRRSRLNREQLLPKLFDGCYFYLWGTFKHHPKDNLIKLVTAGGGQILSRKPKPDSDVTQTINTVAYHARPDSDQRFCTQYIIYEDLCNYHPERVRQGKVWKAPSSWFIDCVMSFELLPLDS

BRCA1-BARD1 complex = BRCA1-BARD1 complex ( | human, UniProt P38398 1-1863; Q99728 1-777); experiment: pull-down
[1] = biological target: BRCA1^1-500-BARD1 complex ( | human, UniProt P38398 1-500; Q99728 1-777); experiment: pull-down
[2] = biological target: BRCA1^Δ758-1064-BARD1 complex ( | human, UniProt P38398 1-1863; Q99728 1-777, Δ758-1064); experiment: pull-down

Measured: binding result

LKEDKPRKSLFNDAGNKKNSIKMWFSPRSKKVRYVVSKAS (domain or fragment, human, UniProt Q99728 123-162, looked up) [GST-BARD1^123-162]
binds: RAD51

B1
not listed: RAD51
binds: all other assays above
